Here are results for one molecule from doi:10.1101/2020.01.02.893016 (bioRxiv, 2020).

Changes are numbered by the printed parent chain. Names and notes keep the numbering of the source.

For this experiment, the target named is T1, ROOTY (RTY) protein, wild type, C-S lyase (Arabidopsis thaliana, UniProt Q9SIV0 1-462).
T1 sequence (looked up): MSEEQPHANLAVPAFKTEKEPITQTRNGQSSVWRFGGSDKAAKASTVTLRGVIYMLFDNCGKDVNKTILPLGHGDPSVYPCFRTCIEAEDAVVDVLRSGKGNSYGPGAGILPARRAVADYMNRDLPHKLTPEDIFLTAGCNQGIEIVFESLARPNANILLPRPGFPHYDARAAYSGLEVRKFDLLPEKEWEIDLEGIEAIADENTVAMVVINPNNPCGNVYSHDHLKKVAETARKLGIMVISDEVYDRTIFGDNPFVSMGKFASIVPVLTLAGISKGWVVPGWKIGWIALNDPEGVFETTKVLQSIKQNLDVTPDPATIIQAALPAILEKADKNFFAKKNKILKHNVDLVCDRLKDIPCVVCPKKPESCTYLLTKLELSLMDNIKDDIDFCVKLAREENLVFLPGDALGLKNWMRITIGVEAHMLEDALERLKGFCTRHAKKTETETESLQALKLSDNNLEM
In words: two-hybrid.

B1: ROOTY (RTY) protein, D315N mutant (TG8B allele) (enzyme, Arabidopsis thaliana, UniProt Q9SIV0 1-462, looked up)
chain: T1 sequence (looked up) with D315N
With B1, the “beta-galactosidase activity relative to WT-WT” value was around 80%.
